Laboratory results published in US12662540B2, “Compositions and methods for inhibition of MICA/B shedding” (DANA-FARBER CANCER INSTITUTE, INC., priority 2017, dated 2026).
Entries after “also recorded” stand apart in the source; their conditions may differ.

How the values were obtained:
human macrophages = experiment: Inhibition of MICA shedding by macrophages; format: cell-based; conditions: acetylated-LDL, 24 hours, antibody 10 μg/ml
Experimental: PBMC were isolated from a leukapheresis collar obtained from a healthy donor, and monocytes were isolated by adherence to tissue culture plates (2 hour incubation). Non-adherent cells were then washed away and M-CSF was added at 100 ng/ml in RPMI-1640 media supplemented with 10% FBS, Glutamax and Penicillin/Streptomycin. Visual inspection of cell morphology on day 5 confirmed that monocytes had differentiated into macrophages. Macrophages were treated for 24 hours in 96-well plates with different concentrations of acetylated LDL as well as MICA antibodies (10 μg/ml). Shed MICA in supernatants was examined by ELISA (Abcam) and cell surface density of MICA/B was quantified by flow cytometry.

Kupffer cells = experiment: Analysis of liver macrophages in humanized metastasis model; format: in vivo, NSG mice; conditions: three weeks after tumor cell inoculation
Experimental: NSG mice were injected i.v with A2058 cells and treated with 7C6-hgG1 or isotype control antibodies as described above. Three weeks following tumor cell inoculation, mice were euthanized and livers were perfused with PBS through the portal vein. Livers were mechanically dissociated and cell suspensions passed through a 70 □ filter. […] Antibodies used for subsequent labeling were APC-CD45.2, APC-CD45.1, BV785-CD11b, BV421-F4/80, BV650-CD80, PE-CD86, FITC-Ly6C, PE-Cy7-Ly6G, PERCP-Cy5.5-CD16/CD32 and Zombie NIR. Cells were acquired in a Sony Spectral Analyzer and data were analyzed by FlowJo.

A375 cells = experiment: NK cell cytotoxicity assay (51Cr release), human NK cells against human tumor cells; format: cell-based
Experimental: Human NK cells were isolated from fresh leukapheresis blood collars that had been generated by Brigham & Women's Hospital, Boston, from healthy donors. Samples were diluted with an equal volume of PBS and blood mononuclear cells were isolated by Ficoll density gradient centrifugation. Cells were washed with PBS, and NK cells were isolated by negative selection using the Human NK Cell Isolation Kit (130-092-657, Miltenyi Biotech) using an autoMACS system (Miltenyi Biotech). Enriched NK cells (purity of 50-90%) were then incubated with anti-CD56 (PE or APC conjugated) and anti-CD3 (FITC or Pacific Blue conjugated) (Biolegend) and sorted using a BD FACS Aria. Following sorting, NK cell purity was ˜99%. These cells were cultured for twelve hours in complete RPMI media supplemented with 300-1000 U/ml of recombinant human IL-2 (BD Pharmingen).
Target cells were labeled for 1 hour with 100 μCi of ^51[Cr] per 2×10^6 cells in 0.2 ml of media. Subsequently, cells were washed and plated in V-bottom 96-wells plates (5,000 target cells per well). To determine the experimental release, NK cells were added in an equal volume, but at different ratios. To determine maximum and spontaneous release, target cells were mixed with an equal volume of 2% Triton-X100 in PBS or an equal volume of media, respectively. Antibodies were added at a final concentration of 10 μg/ml.
For experiments shown in FIGS. 1E, 10, and 13E antibodies were added at the time of the killing assay. For FIGS. 3A-B, antibodies were added to tumor cells 48 hours prior to labelling with ^51[Cr] to inhibit MICAS shedding. The isotype control antibody for assays with human NK cells was recombinant human IgG1 Fc (BE0096, BioXcell). […] At the end of the incubation period, plates were centrifuged (2000 rpm, 5 minutes), part of the supernatant was collected, mixed with scintillation fluid, and radioactivity was quantified using a MicroBeta2 reader (Perkin Elmer). Specific killing was calculated using the following formula: 100×(Experimental release−Spontaneous release)/(Maximum release−Spontaneous release).

human NK cells [1] = experiment: Intracellular interferon-γ production by NK cells co-cultured with tumor cells; format: cell-based; conditions: co-culture with tumor cells, antibody 10 μg/ml
Experimental: NK cells were co-cultured for 6 hours at a ratio of 5:1 with tumor cells in the presence of Brefeldin-A (Biolegend). After the incubation time, Fc receptors were blocked, cells stained with NK cell markers, stained further with a dead cell marker (Zombie Yellow, Biolegend), and subsequently processed for intracellular interferon-γ labeling. Briefly, cells were fixed with BD Cytofix/Cytoperm™ Fixation and Permeabilization Solution (BD Pharmingen), permeabilized with Permeabilization Wash Buffer (Biolegend), and stained with APC-conjugated anti-human interferon-γ (4S.B3, Biolegend) or appropriate isotype control. Fluorescence spectra were acquired using a LSR Fortessa flow cytometer and analyzed by FlowJo.

human NK cells [2] = experiment: NK cell RNA-sequencing after co-culture with antibody-pretreated A375 cells; format: cell-based; conditions: 6 hours co-culture; A375 pretreated 48 hours
Experimental: Human NK cells were isolated from a healthy volunteer to ˜99% purity. These cells were pre-activated with 1,000 U/ml IL-2 overnight. A375 tumor cells were pre-treated with 10 μg/ml of 7C6-hIgG1 or isotype control (BioXcell BE0096) antibodies for 48 hours. Cells were then washed and NK cells were co-cultured with tumor cells for 6 hours in a 5:1 ratio. Subsequently, human NK cells were re-sorted and total RNA isolated with genomic DNA digestion with QIAGEN RNeasy RNA isolation kit (74134). RNA sequencing libraries were generated using the Kapa mRNAseq kit (KapaBiosystems). The libraries were analyzed by Next-Generation Sequencing and pooled barcoded samples were subjected to VIPER analysis. RNA levels were compared for NK cells from co-cultures treated with 7C6-hIgG1 versus isotype control antibodies. A cut-off of at least 1 Log2 fold change was applied to select genes that were differentially expressed. Gene set enrichment analysis (GSEA) was also performed in order to identify relevant molecular pathways for differentially expressed mRNAs.

A2058 melanoma cells = experiment: A2058 metastasis model (NSG mice, human NK cells); format: in vivo
Experimental: Human NK cell reconstitution of NSG mice was done similar to a previous report (26). Briefly, human NK cells were obtained from fresh blood collars, as described above. Cells were treated overnight with 300 U/ml of recombinant human IL-2 (BD Pharmingen), and 1.5×10^6NK cells were injected intravenously into NSG mice. NK cell survival was supported by intraperitoneal injection of 75,000 U of IL-2 (Peprotech) every other day. Human NK cells survived in NSG mice for approximately one week under these conditions (data not shown) and therefore the last IL-2 injection was given 7 days following NK cell transfer. Furthermore, one day after NK cell inoculation and the first injection of IL-2, NSG mice were also injected intravenously with 1×10^6 A2058 melanoma cells. Two days later, mice were treated with 200 μg 7C6-hIgG1 or isotype control (BioXcell) and again once per week. Mice were bled at multiple time points to measure shed MICA and other serum markers. Euthanasia was performed on day 30 following tumor cell inoculation, lungs were perfused with Indian ink (as described above), fixed in Fekete's solution, and the number of lung metastases was counted. Lungs processed for histology were not perfused but fixed in formalin. Livers were also collected, fixed in formalin solution and the number of metastases was counted, or processed for histology. Following removal of these tissues, mice were fixed in Bouin fixative and processed for necropsy by the Rodent Histopathology Core (Dana-Farber/Harvard Cancer Center). The analysis was performed by a pathologist unaware of the different experimental groups.
Macrophages were depleted by intravenous injection of 0.2 ml clodronate liposomes (Encapsula NanoSciences LLC). In the humanized and B16F10-MICA metastasis models, 0.2 ml of clodronate liposomes or control liposomes were injected i.v. (on the same day of tumor cell inoculation and then once weekly).

B1: 7C6-hIgG1: recombinant 7C6 with Fc segment replaced by human IgG1 (antibody, V domains shown)
VH: QIQLVQSGPELKKPGETVKVSCKASGYMFTNYAMNWVKQAPEKGLKWMGWINTHTGDPTYADDFKGRIAFSLETSASTAYLQINNLKNEDTATYFCVRTYGNYAMDYWGQGTSVTVSS
VL: DIQMTQTTSSLSASLGDRVTISCSASQDISNYLNWYQQKPDGTVKLLIYDTSILHLGVPSRFSGSGSGTDYSLTISNLEPEDIATYYCQQYSKFPRTFGGGTTLEIK
MICA and MICB surface levels on macrophages (human macrophages): increased MICA and MICB surface levels on macrophages
MICA shedding by macrophages (human macrophages): inhibited MICA shedding
CD80 expression by Kupffer cells (Kupffer cells): higher surface levels of the CD80 activation marker; also recorded: increased expression of CD80 by Kupffer cells
NK cell-mediated cytotoxicity against antibody-pretreated A375 cells (A375 cells; A375 treated 48 hours, 4 hour co-culture with human NK cells): triggered stronger NK cell-mediated cytotoxicity than the 7C6-hIgG1-DANA mutant
NK cell mediated cytotoxicity against human tumor cells (A375 cells; human NK cells, antibody added at time of killing assay (10 μg/ml, 66.7 nM)): enabled strong NK cell mediated killing of human tumor cells; also recorded: exhibit cytotoxicity against A375 cells
IFNγ (cytokine) production by human NK cells (human NK cells [1]): produced higher levels of IFNγ
gene expression by human NK cells (human NK cells [2]): upregulated genes associated with NK cell activation and effector functions
number of lung metastases (A2058 melanoma cells; NSG mice reconstituted with human NK cells, day 30): had fewer lung metastases; also recorded: reduces number of lung metastases in the presence of human NK cells
activity against liver metastases after macrophage depletion (A2058 melanoma cells; clodronate liposomes, no NK cell reconstitution, 3 weeks): abrogated the therapeutic activity
number of organs with metastases (metastatic load) (A2058 melanoma cells; day 30): reduced the number of organs with metastases; also recorded: significantly reduced metastatic load in the absence of transferred NK cells
survival (A2058 melanoma cells; mice reconstituted with human NK cells): significant survival benefit; also recorded: increases the survival of mice
number of liver metastases (A2058 melanoma cells; with or without NK cell transfer, day 30): substantially reduced the number of liver metastases even without NK cell transfer; also recorded: shows significant therapeutic activity against liver metastases even in the absence of NK cells
